This note sets out measurements from PMC4960544, “Production of full-length soluble Plasmodium falciparum RH5 protein vaccine using a Drosophila melanogaster Schneider 2 stable cell line system” (Scientific Reports, 2016).

The target in test [1] is T1, PfRH5 protein variant version 4.0 (3D7 sequence, N38Q and N214Q) (Plasmodium falciparum (3D7 clone), UniProt Q8IFM5 26-526, N38Q | N214Q).
T1 construct: only two of the putative N-linked glycosylation sites mutated (N38Q and N214Q); The construct has an N-terminal BiP insect signal peptide (…); No cleavage site for the His6 tag is described; No evidence of glycosylation was found for this variant; also called PfRH5 v4.0; v4.0; source: without the Con A step
T1 sequence: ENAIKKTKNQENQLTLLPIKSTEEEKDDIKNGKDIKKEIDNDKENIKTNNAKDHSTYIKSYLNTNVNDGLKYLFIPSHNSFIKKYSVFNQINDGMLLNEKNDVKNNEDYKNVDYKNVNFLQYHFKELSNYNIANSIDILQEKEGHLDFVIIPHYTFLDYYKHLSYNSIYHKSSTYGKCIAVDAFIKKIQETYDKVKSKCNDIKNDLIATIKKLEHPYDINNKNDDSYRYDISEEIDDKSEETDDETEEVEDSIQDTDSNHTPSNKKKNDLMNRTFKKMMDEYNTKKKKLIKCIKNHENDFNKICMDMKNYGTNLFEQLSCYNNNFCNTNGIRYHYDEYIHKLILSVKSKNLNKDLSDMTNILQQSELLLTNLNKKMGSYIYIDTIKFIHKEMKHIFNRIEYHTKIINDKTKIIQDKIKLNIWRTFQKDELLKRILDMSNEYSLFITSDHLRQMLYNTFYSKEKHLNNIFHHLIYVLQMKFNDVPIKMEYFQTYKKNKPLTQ
Nature of the test: SPR; basigin immobilised on a CM5 chip by amine coupling (850 RU); PfRH5 variant injected at 8-0.0625 uM, 120 s at 30 uL/min, 300 s dissociation; 20 C; 10 mM HEPES pH 7.4, 150 mM NaCl, 3 mM EDTA, 0.005% Tween-20, 2 mg/mL dextran, 1 mg/mL salmon sperm DNA; blank surface subtracted; global 1:1 interaction model. The conditions noted are these: both partners purified. For orientation: In SPR one partner is held on a chip, and binding of the other changes the refractive index at the surface.

The target of test [2] is T2, PfRH5 protein variant version 1.0 (7G8 sequence, four N-linked glycosylation sequons mutated Thr to Ala) (Plasmodium falciparum (7G8 …, UniProt Q8IFM5 26-526, C203Y | Thr to Ala in the sequon starting at N38 (position 40 worked out) | Thr …)).
T2 construct: The construct has an N-terminal 18-residue BiP insect signal peptide (…) in place of the native one; No cleavage site for the His6 tag is described; also called PfRH5 v1.0; v1.0
T2 sequence: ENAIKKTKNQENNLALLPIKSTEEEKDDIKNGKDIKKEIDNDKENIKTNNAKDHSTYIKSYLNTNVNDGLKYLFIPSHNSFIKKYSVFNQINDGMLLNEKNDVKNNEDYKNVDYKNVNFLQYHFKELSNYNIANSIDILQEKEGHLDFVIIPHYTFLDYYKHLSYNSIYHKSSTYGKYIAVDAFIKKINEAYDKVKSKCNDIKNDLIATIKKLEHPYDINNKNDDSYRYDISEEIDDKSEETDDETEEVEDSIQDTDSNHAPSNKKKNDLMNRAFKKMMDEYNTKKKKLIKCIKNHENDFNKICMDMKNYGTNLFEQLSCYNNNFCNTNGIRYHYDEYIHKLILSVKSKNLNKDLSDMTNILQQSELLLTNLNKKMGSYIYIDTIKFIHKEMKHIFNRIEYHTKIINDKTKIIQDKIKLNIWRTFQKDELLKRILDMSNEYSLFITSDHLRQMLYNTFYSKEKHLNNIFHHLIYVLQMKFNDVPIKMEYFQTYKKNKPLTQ
The test is described as above. The conditions noted are these: both partners purified.

B1: recombinant basigin, immunoglobulin domains 1 and 2 of the short isoform (22-205) (domain or fragment)
chain: GAAGTVFTTVEDLGSKILLTCSLNDSATEVTGHRWLKGGVVLKEDALPGQKTEFKVDSDDQWGEYSCVFLPEPMGTANIQLHGPPRVKAVKSSEHINEGETAMLVCKSESVPPVTDWAWYKITDSEDKALMNGSESRFFVSSSQGRSELHIENLNMEADPGQYRCNGTSSKGSDQAIITLRVRSH
notes: additional glycine left at the N-terminus from the TEV cleavage site; basigin (CD147), immunoglobulin domains 1 and 2 of the short isoform, residues 22-205; numbers count on: the short isoform; basigin is spoken of as the red blood cell receptor of the human malaria parasite; also called CD147; PfRH5 receptor; not shown: His6, N-terminal, cleaved
Consider B1, for which the binding result in test [1] and in test [2] was “binds” throughout.
